Laboratory results published in the NTF2 design screens of Basanta et al. (2020).

Assay: protease stability score; higher = more stable; yeast display proteolysis, trypsin and chymotrypsin;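 further: relative to predicted unfolded state with 0 unfolded-like and 1 meaning tenfold more protease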

With “DETEEDARHFVELWRRDMITGDEDRIKEMADPNVRVIIGDKNLHGREDMTEVLRHLRIHRVNVHSIHVQGDWVHITTEVDGRIGDKRHELEVHILTRKVNGRWQLQTLEIG” the protease stability score was 1.12.
Work on “DETEEDVREAIRKMLHSTRTGDEEDNKKLMDPNVQIDIDGVKYHGWETWVEHMRRVDHLRMKIHSIEVQGNKLIVDGELDQRFNGVQLRFRSELILVKIDGRWLVHSIHFK” yielded a protease stability score of 1.17.
“DETEEEARHVFELIIEYHLTGDWDKWLRMFDPHVKLVVNGRDNHGREHAVHRLKEFLRQWRIHDVEVKSVDLQGDKVRVDGRLDGIVNGVREKTEVTLSLIVVDGKIKSHEVRIH” showed a protease stability score of 1.51.
Sequence “DETEEEVREAIEKFIQDLHTGNWHAYNEMLDPNVRVIVGDKHLHGRERVLEWEEEFMRKVKGATYRIDHMDVIDGRINLHFRITIGDKSREFNVHSLKINGQWHTKEVRVNIL” has a protease stability score of 1.06.
“DETEEEVRKFVEESVKQNNTGNEDFAKRLADPNARFEQGDKELHGREEMRRVLVELWFEDYRIERLHVQGNKVEVEVVVHGVVNGKHQEVRVIIILLKINGRWVFRDVTVK” gave a protease stability score of 0.648.
“DETEEIAKKVVEYWIREFMTGNEESLLELIDPNAKSDILQGDKELHIVGRESARLFIKRFKGQRMEITHLEVHVQGDKVHVRLHVDIIYNGRKFHVISHVDWEKIDGRWIIHQEKFVFE” gave a protease stability score of 1.71.
“DETEELFEEIVKIFIEAMETGDWRLLKRMVDPHVRSIQGDFHLHGRESMLELWLHIRIDRITLTDARVRIQGEKVHVDLRVKTNGIINGRRKDTQTHVHLHLDKVNGVWSITITNIIFE” showed a protease stability score of 0.553.
“DETEEMAEEVLRRFLEINRTGDWKDLHRLFDPNVRIVVNGQELHGMELYLKHEIKTRRKLGAKVEEVRLKHLDSQGEKIISEVEIIFDINGQEIRLDVRVIMNKIDGKWTIRELRIH” gave a protease stability score of 1.08.
With “DETEEMARLFNEEVRHSWKTGNEEHIKRLIDPHAKVHIGDKELHGRERATETIRKLGVKHLEIDDIHIIDGRVHVDGTLDVDGQSFRVEIILSKVNGRWLNEEIRIH” the protease stability score was -0.344.
“DETEEMIKRHMDKLFRAVRTGDWDQFVKLADPNTRIEVGDFHYHGWERFSEFMSELRIHRFRMHDSEVVNGRVHLHTEEDGEVNGKRRESRVHRVLLKIDGRWHLHSVHIE” gave a protease stability score of 0.909.
Sequence “DETEEMVREMAHLFLHLWITGDEEIIKHLLDPSVRLHINGVDNHGRENALEVVHRILKELRLRHLHIHEVHIINGVIHNNIRLDIEQGDKRRILEIEVILVVWNGKIKSIEVRLK” has a protease stability score of 1.51.
Sequence “DETEERTRKAIKLSLEVLRTGDERVISEMADPHVRLDFNGRQLHGREEFVHHIVRFFEEAGINYLHIEDWDVFNGVIIEHVRWNFNGREVEVEIIANKVNGKWLIKEFRIK” has a protease stability score of 1.07.
For “DETEEVMERVIQMLAHATHTGDWKDIRRLMDPNVKININGREIIGREELIRYLRELRETYHHFELKHVEVQGDKIIVHGRTLIRIEIGDKEIHLDSDVRYILWKVDGRWIMESIHIV”, the protease stability score was 2.18.
In the case of “DETEHHAREMAELLLHVILTGDEHLMERLIDPDVKLHSFFNGRQFHRIGMEELKRYLEEWRREIRLKDVRIRQFEVQGDKFRLDMEVEGNINGRDNVTKTELIIITVNGRLHEIDIRIE”, the protease stability score is reported as 2.1.
“DETEKHILKLAEMLVRDWITGNEENIMELLDPHAKIDIHIDGRYLEFHGRELITRELIRHYEEIRIHYHFRESESVGEKASINMDVEVHIGDKIVRSHTEVILDIVNGRVRNIHIRWK” gave a protease stability score of 2.23.
“DETEKHVKHLTELWMHAWLTGDEDLLEHLLDPHTRVIIFYGDKNYHFHGRESIHIRFYELGAKHVRDFRIRDSKIQGNKLLLNGEENGLVNGRQTETEVRIELVWIDGRVHSIVVRIH” gave a protease stability score of 1.3.
Sequence “DETEKIVRSVVHMFLHLMHTGDWEELMKLADPNTIVHFENHRKHGREDAIRHIIEFILRADHIEVHLDEIRIQGDKVYLNLRLILDINGRRIETRVHIILVKINGRWRIHSMDVE” has a protease stability score of 1.4.
Work on “DETENSLRTMLHRLLDSIRTGDFRTVDDLADPHVKIDVGDKHIHGREIYRKIVLQADHVESRFHLHDIHNIGNWAHVDGRLINHEVVDGQKIDLDLRIEIIVTKIDGKWTIESVRFE” yielded a protease stability score of 1.46.
In the case of “DETERDVREAVRIWNEDVETGNEESLLRLIDPHVRLVINGQTFHGMESMLEVLNEFLKHIRVEHIEVKRIEIQGDKAIIDTNMDIEIDGKRKQKKTTLIIRKFNGRWHLSLVEIR”, the protease stability score is reported as 1.86.
In the case of “DETERLAEKWYRHWLHLILTGDWELLEKQADPHYKFHVGDKVFIGRELASEWLRHLYEHIRIDDMKITHLDLQGDKINNDGRMRVTQGEKHKEVSVDLHMIVVNGKMHEIRIRTH”, the protease stability score is reported as 1.45.
Sequence “DETERWAHLMLKLMQRYQETGDEDSLLELMDPEAKIDINGKEIHGREEWREHRYHHLRELGHTNIDVRVHLRRMHNVGDKANVRGELRININGKKLSVDVIIIILKIDGRWVIESLRLE” has a protease stability score of 0.736.
“DETETAKRFALEMLLHTLRTGDEEDKLRMLDPNARLVIGDKEFWGWKEFKKFVEKESRELRIQDSRIQHVELQGDKLHLDSVIIGQVNGVTVELKVEFVMNKIDGKWRVEEIIVR” showed a protease stability score of 1.34.
Sequence “DETFEDAHKLFKKFWEDMRTGDESEIEKLLDPNDKVHQGEKQTHGREEASRTHQEDIRRVDVFERVHIDHIETQGDFAIIDSTWIIHFDGKRFTRKVIIFLVKINGQWKFHSITMR” has a protease stability score of 0.71.
For “DETFEWANIAIEHLIHSARTGDEKTFEEMADPDTRFLYNGQIIIGREEVNKMLSTVLREIRLEDVQVKRIEVYDGRVHSDMTRQGEFDGRHFTSKTEFIVHKVDGRWSIKEIRIT”, the protease stability score was 0.89.
Work on “DETFKEQEKLIERLERVERTGDWKEWERLADPNVRMDIDGVEIIGMEMVTEFILREMRHLGVTRIRIEIKEIRVIGDKIRIDGQIQQGNKETRFILIVSKIDGRWRLEESYVH” yielded a protease stability score of 1.06.
